Measurements as given in patent publication US20250114467A1 (SHANGHAI FUDAN ZHANGJIANG BIO PHARMACEUTICAL, published 2025).

Target: T1, human DLL4 (purchased from Acro, DL4-H5227) (human, UniProt Q9NR61 27-524)
T1 construct: Bought; also called hDLL4
Experiment: ELISA, plate-coated protein 1 µg/ml
Method: The chimeric antibodies obtained in Example 6 were evaluated for their binding abilities to human DLL1 (purchased from Acro, DL1-H52H8) and DLL4 (purchased from Acro, DL4-H5227) proteins using the ELISA method. The ELISA detection method involved diluting DLL1 and DLL4 proteins with PBS to a final concentration of 1 μg/ml and coating them onto 384-well ELISA plates (purchased from Corning, 3700) at 4° C. overnight. The next day, the supernatant in the plate wells was discarded, and the wells were blocked with 80 μl of 3% milk (dissolved in PBS) for 2 hours, followed by washing three times with 80 μl of PBST (0.1% Tween20). […] After washing with 80 μl of PBST (0.1% Tween20) for five times, 25 μl of HRP-labeled goat anti-human secondary antibody (Jackson, 1:10000) was added to each well and incubated at room temperature for 1 hour, discard the supernatant, and the wells were then washed seven times with 80 μl of PBST (0.1% Tween20). After adding 25 μl of TMB chromogen solution for 10 minutes, the reaction was terminated with 2M HCl, and the absorbance value at 450 nm was measured with a Microplate reader (purchased from Biotek, Elx808). […] To assess the cross-reactivity of the antibodies with mouse and monkey DLL3, mouse DLL3-expressing plasmid pCMV3-mDLL3 (purchased from Beijing Yiqiao, MG58052-UT) and monkey DLL3-expressing plasmid pCMV3-rheDLL3 (purchased from Beijing Yiqiao, CG90919-UT) were used to construct overexpressing cell lines. The construction of overexpressing cells was as described in Examples 2-3. The binding abilities of the chimeric antibodies to these cells were determined by flow cytometry to assess the cross-reactivity of the antibodies with different species.

T1 sequence (Q9NR61 27-524 limits assumed): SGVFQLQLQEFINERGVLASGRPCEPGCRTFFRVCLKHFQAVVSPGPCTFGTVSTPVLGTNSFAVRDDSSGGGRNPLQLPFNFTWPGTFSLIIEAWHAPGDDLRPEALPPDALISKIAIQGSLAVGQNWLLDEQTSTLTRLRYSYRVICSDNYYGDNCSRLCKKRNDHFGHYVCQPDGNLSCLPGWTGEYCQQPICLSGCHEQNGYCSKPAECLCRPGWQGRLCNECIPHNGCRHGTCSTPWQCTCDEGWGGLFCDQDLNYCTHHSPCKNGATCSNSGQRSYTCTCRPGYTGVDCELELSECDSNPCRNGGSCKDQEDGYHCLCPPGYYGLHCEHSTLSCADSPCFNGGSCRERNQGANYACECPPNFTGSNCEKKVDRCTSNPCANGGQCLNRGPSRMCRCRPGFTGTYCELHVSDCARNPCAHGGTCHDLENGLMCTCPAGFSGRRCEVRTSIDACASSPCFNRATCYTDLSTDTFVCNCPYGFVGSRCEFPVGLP

Row | binding result | Binder
1 | no binding (tested: up to 20 µg/ml) | ch10B1 (antibody, human IgG1, kappa, V domains shown, Chimeric: murine variable regions on human IgG1 heavy and kappa light constant regions; also called chimeric antibody 10B1) VH: DVKLVESGGGLVKPGGSLKLSCAASGFTFSNYTISWVRQTPEKRLEWVATFSSGGSYTYYSDSVKGRFTISRDNAKNTLYLQMSSLKSEDTAMYYCSRDRRSDGYYHLYAMDYWGQGTSVTVSS VL: DIQMTQTTSSLSASLGDRVTISCRASQDISHYLNWYQQKPDGTVKLLIYYTSRLHSGVPSRFSGSGSGTAYSLTISNLEQEDIATYFCQQGYTLPLTFGAGTKLELKR
2 | no binding (tested: up to 20 µg/ml) | ch23G2 (antibody, human IgG1, kappa, V domains shown, Chimeric: murine variable regions on human IgG1 heavy and kappa light constant regions; also called chimeric antibody 23G2) VH: QVQLQQSGPELVRPGVSVKISCKGSGYTFTDYAIHWVKQSRAKSPEWIGIVSTDSGKTSFNQKFKGKATMTVDKSSTTAYMELVRLTSEDSAIYYCARNPYYDYDGYAMDYWGQGTSVTVSS VL: DIQMTQSSSYLSVSLGGRVTIICKASDHINNWLAWYQQKPGNAPRLIISGATSLETGVPSRFSGSGSGKDYTLSITSLQTEDVATYYCQQYWSIPYTFGGGTKLEIKR
